Measured values reported in US8563503B2, “Antibiotic, its nucleotide sequence, methods of construction and uses thereof” (Protein Design Lab. Ltd., priority 2011, dated 2013).

Tests used:
[1] = test system: Staphylococcus aureus MRSA BAA-42; experiment: MIC against the infecting strain (Table 2); type: cell-based; details: Staphylococcus aureus MRSA BAA-42
Summary of the method: (§1)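 MH agar, twofold drug dilutions; multipoint inoculation, 10^5 CFU/ml/spot; 37° C, 18-24 h; E. faecalis in MH + 5-10% defibrinated rabbit blood, 5% CO2. Endpoint: no visible growth.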

[2] = test system: E. coli 02-1-65; experiment: MIC against the infecting strain (Table 2); type: cell-based; details: E. coli 02-1-65
Summary of the method: as §1

[3] = test system: Staphylococcus aureus ATCC 29213; experiment: MIC against the infecting strain (Table 2); type: cell-based; details: ATCC29213
Summary of the method: as §1

[4] = Immunization of mice, valence of mouse sera by indirect ELISA; type: in vivo; details: from valence of mouse sera
Description: Allosteric peptide of Colicin Ia, i.e. Ia′, PMC-SA1 obtained in embodiment 1, wild-type colicin Ia and the anti-Staphylococcus aureus peptide (ZL01128836.1) which invented by the present inventor were taken respectively to immunize mice. After admixturing with the adjuvant, the above proteins were interaperitonea injected respectively to the mice by 50 μg per mouse for one time of foundational quantity and 50 μg per mouse for one time of additional quantity totally 5 times by two weeks interval. Indirect ELISA detection method was applied to detect the valence of mouse sera (Xiao Yi, et. al., Preparation and preliminary characterization of monoclonal antibodies against Pheromonicin-and-Staphylococcus aureus, Shanxi Medical Journal, 35(1): 6-7, 32 (2006)). The valence of mouse sera which immunized by wild type colicin Ia as well as anti-Staphylococcus aureus polypeptide (ZL01128836.1) was 10^−4 to 10^−5, while the valence of mouse sera which immunized by allosteric peptide of colicin Ia and PMC-SA1 was 10^−2 to 10^−3.

[5] = test system: Enterococcus ATCC 700802; experiment: MIC against the infecting strain (Table 2); type: cell-based, Enterococcus faecalis; details: ATCC700802
Description: (3) Culture Solution • MH Broth Culture Solution: 25 g was added into […] distilled water, heat to dissolve, subpackaged, autoclaved at 116° C. for 20 minutes, and MH Solid Culture Medium, 36 g was added into 1000 ml distilled water, autoclaved at 116° C. for 20 minutes, used for drug sensitive test of Gram-positive and negative aerobic bacteria. • Blood culture solution for Enterococcus faecalis, which was prepared by adding defibration rabbit blood into the MH culture solution by 5-10% and cultured at 37° C. in 5% CO2 for 24 hours. 2. Experimental Methods (1) The Measurement of Minimum Inhibitory Concentration (MIC) • The Minimum Inhibitory Concentration (MIC) of PMC-SA1 was measured by Agar Doubling Dilution Method. The bacterium was inoculated on the surface of agar plate containing different concentration of drugs by multipoint inoculate instrument (Deneley A400). The bacterial content per point was 10^5 CFU/ml. After incubated at 37° C. for 18-24 hours, the result can be observed. The least concentration of drugs in plate culture solution without bacterium growing was Minimum Inhibitory Concentration (MIC) of the drug to the said bacteria. 3. Results

[6] = test system: Staphylococcus aureus MRSA BAA-42; experiment: Protection test in vivo (intravenous injection) of infected mice; design: species or system Kungming mice
Summary of the method: (§2)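 Mice got a lethal intraperitoneal bacterial challenge, then one intravenous dose of drug in sterile water at 10, 5 or 2.5 mg/kg. Survival was checked every 24 h for 7–14 days, with death counted as the positive result.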

[7] = test system: E. coli 02-1-65; experiment: as above; design: species or system Kungming mice; details: mice, infected with 3.8 × 10^5 cfu/ml i.p., drug once intravenous
Summary of the method: as §2

[8] = test system: Staphylococcus aureus ATCC 29213; experiment: as above; design: species or system Kungming mice; details: mice, infected with 4.6 × 10^5 cfu/ml i.p., drug once intravenous
Summary of the method: as §2

[9] = test system: Enterococcus ATCC 700802; experiment: as above; design: species or system Kungming mice; details: mice, infected with 7.0 × 10^6 cfu/ml i.p., drug once intravenous
Summary of the method: as §2

[10] = test system: Baumanii; experiment: MIC by Agar Doubling Dilution Method, clinical isolates; type: cell-based; details: Baumanii clinical strains
Summary of the method: as §1

[11] = test system: Staphylococcus aureus (MRSA); experiment: as above; type: cell-based
Summary of the method: as §1

[12] = test system: E. coli; experiment: as above; type: cell-based; details: E. coli clinical strains
Summary of the method: as §1

[13] = test system: Staphylococcus epidermidis (MRSE); experiment: as above; type: cell-based; details: MRSE clinical strains
Summary of the method: as §1

[14] = test system: Staphylococcus epidermidis (MSSE strain); experiment: as above; type: cell-based; details: MSSE clinical strains
Summary of the method: as §1

[15] = test system: Staphylococcus aureus (MSSA); experiment: as above; type: cell-based; details: MSSA clinical strains
Summary of the method: as §1

[16] = test system: methicillin-resistant Staphylococcus aureus ATCC BAA-42; experiment: Bacteria growth curve (A595 nm), comparison of the novel antibiotics; type: cell-based; details: drug 5 μg/ml, 37° C., A595 nm per hour
Summary of the method: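 MRSA ATCC BAA-42 (10^6 CFU/ml inoculum level) grown in peptone/NaCl/yeast extract/glucose/K2HPO4 broth at 37 °C, 200 rpm, with each polypeptide at 5 μg/ml; buffer (0.3 M NaCl + 50 mM boric acid) and penicillin G 5 μg/ml as controls. Turbidity (A595 nm) sampled hourly for growth curves.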

B1: PMC-SA1: Staphylococcus aureus pheromone AgrD I linked to C-terminus of allosteric colicin Ia′; SEQ ID NO. 13; plasmid pBHC-SA1 (protein)
chain: SDPVRITNPAAESLGYDSDGREIMGVDIYLNPPRVDVFKGTPPAWSSFGNKTIWGGNEWVDDSPTRSDIEKRDKEITAYKNTLSAQQKENENKRTEAGKRLSAAIAAREKDENTLKTLRAGNADAADITRQEFRLLQAELREYGFRTEIAGYDALRLHTESRMLFADADSLRISPREARSLIEQAEKRQKDAQNADKKAADMLAEYERRKGILDTRLSELEKNGGAALAVLDAQQARLLGQQTRNDRAISEARNKLSSVTESLNTARNALTRAEQQLTQQKNTPDGKTIVSPEKFPGRSSTNHSIVVSGDPRFAGTIKITTSAVIDNRANLNYLLSHSGLDYKRNILNDRNPVVTEDVEGDKKIYNAEVAEWDKLRQRLLDARNKITSAESAVNSARNNLSARTNEQKHANDALNALLKEKENIRNQLSGINQKIAEEKRKQDELKATKDAINFTTEFLKSVSEKYGAKAEQLAREMAGQAKGKKIRNVEEALKTYEKYRADINKKINAKDRAAIAAALESVKLSDISSNLNRFSRGLGYAGKFTSLADWITEFGKAVRTENWRPLFVKTETIIAGNAATALVALVFSILTGSALGIIGYGLLMAVTGALIDESLVEKANKFWGIYSTCDFIM
modifications: The peptide of PMC-SA1
notes: Staphylococcus aureus pheromone AgrD I linked to C-terminus of allosteric colicin Ia′; 13; plasmid pBHC-SA1
Work on B1 yielded an MIC [1] of 0.5 µg/mL, an MIC [2] of 1 µg/mL and an MIC [3] of 0.5 µg/mL. The “possibility of causing host allergic reaction relative to anti-Staphylococcus aureus polypeptide” value [4] was “lower one to two order of magnitude”, the MIC [5] was 16 µg/mL and the ED50 ([6]; mice, infected with 6.5 × 10^5 cfu/ml i.p., drug once intravenous) was 4.12 mg/kg. The “treatment effects on methicillin-resistant Staphylococcus aureus infection in vivo compared with vancomycin” value ([6]; survival rate of mice, three dosage groups) was “far better treatment effects”, the ED50 [7] was 3.78 mg/kg and the ED50 [8] was 10.35 mg/kg. The ED50 [9] was 18.2 mg/kg, the MIC50 [10] was 32 µg/mL and the MIC90 [10] was over 64 µg/mL. For the same molecule, the MIC50 ([11]; MRSA clinical strains) was 8 to 16 µg/mL, the MIC90 ([11]; MRSA clinical strains) was over 16 µg/mL and the “Scope of MIC” value ([11]; MRSA clinical strains) was under 0.25 to 64 µg/mL. For the same molecule, the “in vitro antibacterial activity relative to oxacillin, standardized by same drug molecular number in unit volume” value ([11]; Staphylococcus aureus, MRSA) was 1,240 times, the “in vitro antibacterial activity relative to vancomycin, standardized by same drug molecular number in unit volume” value ([11]; Staphylococcus aureus, MRSA) was “three” and the MIC50 [12] was 16 µg/mL. The MIC90 [12] was over 32 µg/mL, the MIC50 [13] was over 64 µg/mL and the MIC90 [13] was over 64 µg/mL. The MIC50 [14] was 1 µg/mL, the MIC90 [14] was 32 µg/mL and the “Scope of MIC” value [14] was 0.25 to 64 µg/mL. For the same molecule, the MIC50 [15] was 0.5 µg/mL, the MIC90 [15] was 16 µg/mL and the “bacteriostasis effect on growth of methicillin-resistant Staphylococcus aureus (bacteria growth curve)” value [16] was “the best”.
